Laboratory results published in PMC2464603, “Roles of Arabidopsis WRKY3 and WRKY4 Transcription Factors in Plant Responses to Pathogens”.

B1: Pchn0 (dsDNA)
DNA 1: GGAACTTGACCTTGACCTTAGGGCTGCAGGAATTCG
DNA 2: CGAATTCCTGCAGCCCTAAGGTCAAGGTCAAGTTCC
B2: mPchn0 (dsDNA)
DNA 1: GGAACTTGAACTTGAACTTAGGGCTGCAGGAATTCG
DNA 2: CGAATTCCTGCAGCCCTAAGTTCAAGTTCAAGTTCC

Legend:
WRKY3 = WRKY3 (Arabidopsis, UniProt Q9ZQ70 1-513); test: EMSA; not stated; DNA-binding assays as previously described (ref 15); settings: protein: recombinant
WRKY4 = WRKY4 (Arabidopsis, UniProt Q9XI90 1-514); test: as above; settings: protein: recombinant
WRKY4, sequence (Q9XI90 whole entry): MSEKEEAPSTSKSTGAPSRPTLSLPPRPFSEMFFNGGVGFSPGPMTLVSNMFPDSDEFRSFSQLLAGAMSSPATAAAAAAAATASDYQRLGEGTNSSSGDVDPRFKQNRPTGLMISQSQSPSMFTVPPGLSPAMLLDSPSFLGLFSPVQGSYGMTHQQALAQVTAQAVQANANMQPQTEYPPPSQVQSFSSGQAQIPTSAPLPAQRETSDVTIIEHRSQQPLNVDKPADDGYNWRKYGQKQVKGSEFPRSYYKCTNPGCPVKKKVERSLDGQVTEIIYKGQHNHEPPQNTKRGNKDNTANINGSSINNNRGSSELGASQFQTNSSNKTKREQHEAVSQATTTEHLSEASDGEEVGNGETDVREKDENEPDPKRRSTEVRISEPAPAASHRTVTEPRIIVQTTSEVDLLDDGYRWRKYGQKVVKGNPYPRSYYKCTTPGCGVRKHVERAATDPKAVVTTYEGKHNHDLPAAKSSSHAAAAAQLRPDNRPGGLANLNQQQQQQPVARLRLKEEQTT

WRKY3, sequence (Q9ZQ70 whole entry): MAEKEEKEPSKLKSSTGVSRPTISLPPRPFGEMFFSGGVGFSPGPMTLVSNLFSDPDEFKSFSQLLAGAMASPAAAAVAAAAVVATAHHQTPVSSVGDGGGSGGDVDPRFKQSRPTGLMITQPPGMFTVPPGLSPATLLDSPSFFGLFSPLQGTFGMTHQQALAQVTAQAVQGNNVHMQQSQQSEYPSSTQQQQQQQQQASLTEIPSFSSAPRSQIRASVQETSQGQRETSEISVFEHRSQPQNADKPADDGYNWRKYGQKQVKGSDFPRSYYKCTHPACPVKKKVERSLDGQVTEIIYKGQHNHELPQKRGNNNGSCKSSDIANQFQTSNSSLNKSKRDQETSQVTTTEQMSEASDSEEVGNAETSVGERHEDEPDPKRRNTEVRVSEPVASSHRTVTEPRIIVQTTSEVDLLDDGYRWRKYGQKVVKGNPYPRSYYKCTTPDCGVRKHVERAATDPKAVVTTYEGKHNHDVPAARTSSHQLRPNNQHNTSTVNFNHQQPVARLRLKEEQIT

Binder | binding result (WRKY3) | binding result (WRKY4)
B1 | binds | binds
B2 | no binding | 
